Target: the molecule itself
Test: crystal structure

B1: Water soluble chlorophyll binding protein from cauliflower (CaWSCP), recombinant, assembled with Chl a (natural protein)
chain: REQVKDSNGNPVKRGAKYFIQPAKSNGGGLVPAAINILPFCPLGITQTLLPYQPGLPVSFGYEPVIVGTDYIYTSTTINIEFRSEIWPVCNELSKLWAVDVSSSAAKEPAIIIGGERTAPNSLFKIEEATGAHTYKLTTSSGTVGTIPGPWLGAPQLIATNDDAKTLFVKFVKVDDDAT
stoichiometry N: 4

Source: publication PMC6690836 (Angewandte Chemie (International ed. in English), 2016)
